# Patent US20230357342A1 (published 2023)
# T1: IL-18 receptor on HEK-Blue IL18R reporter cells (UniProt Q13478 19-541; O95256 20-599, limits assumed)
# T1 sequence (looked up) 1: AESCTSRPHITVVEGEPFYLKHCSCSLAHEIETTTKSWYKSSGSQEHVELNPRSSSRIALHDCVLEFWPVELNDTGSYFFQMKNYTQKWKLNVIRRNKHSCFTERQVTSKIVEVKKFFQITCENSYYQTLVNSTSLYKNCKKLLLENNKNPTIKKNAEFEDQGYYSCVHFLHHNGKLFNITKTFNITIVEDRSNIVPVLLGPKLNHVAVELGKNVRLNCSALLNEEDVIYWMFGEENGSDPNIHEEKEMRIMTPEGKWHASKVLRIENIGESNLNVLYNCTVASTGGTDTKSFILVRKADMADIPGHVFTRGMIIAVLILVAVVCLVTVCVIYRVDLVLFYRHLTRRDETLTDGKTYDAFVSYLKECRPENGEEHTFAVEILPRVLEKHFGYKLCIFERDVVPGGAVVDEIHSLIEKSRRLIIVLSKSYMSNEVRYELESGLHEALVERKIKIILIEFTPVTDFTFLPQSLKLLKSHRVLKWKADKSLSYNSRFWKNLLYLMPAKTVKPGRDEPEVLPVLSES
# T1 sequence (looked up) 2: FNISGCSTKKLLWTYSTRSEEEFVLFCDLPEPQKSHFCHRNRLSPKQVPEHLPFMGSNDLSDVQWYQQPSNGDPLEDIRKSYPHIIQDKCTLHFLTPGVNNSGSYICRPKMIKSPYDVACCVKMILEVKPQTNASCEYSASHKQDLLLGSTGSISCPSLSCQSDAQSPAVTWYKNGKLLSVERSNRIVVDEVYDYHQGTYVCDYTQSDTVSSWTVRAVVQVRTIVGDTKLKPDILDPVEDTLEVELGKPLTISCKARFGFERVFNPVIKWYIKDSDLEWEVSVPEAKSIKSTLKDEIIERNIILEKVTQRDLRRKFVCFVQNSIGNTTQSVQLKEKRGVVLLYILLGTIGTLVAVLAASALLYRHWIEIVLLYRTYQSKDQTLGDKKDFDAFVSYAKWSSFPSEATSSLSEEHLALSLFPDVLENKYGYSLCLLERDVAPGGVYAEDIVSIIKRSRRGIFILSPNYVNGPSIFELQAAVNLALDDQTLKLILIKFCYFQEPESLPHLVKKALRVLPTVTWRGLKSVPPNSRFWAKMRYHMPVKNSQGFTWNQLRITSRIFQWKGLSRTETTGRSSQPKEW
# B1: modified IL-18 polypeptide SEQ ID NO: 220 (V11I, C38A, K53A, C76A, H109A, C127A) (ligand)
# chain: YFGKLESKLSIIRNLNDQVLFIDQGNRPLFEDMTDSDARDNAPRTIFIISMYADSQPRGMAVTISVKCEKISTLSAENKIISFKEMNPPDNIKDTKSDIIFFQRSVPGADNKMQFESSSYEGYFLAAEKERDLFKLILKKEDELGDRSIMFTVQNED
# B2: modified IL-18 polypeptide SEQ ID NO: 243 (Y1M, E6K, V11I, C38A, K53A, T63A, C76A, C127A) (ligand)
# chain: MFGKLKSKLSIIRNLNDQVLFIDQGNRPLFEDMTDSDARDNAPRTIFIISMYADSQPRGMAVAISVKCEKISTLSAENKIISFKEMNPPDNIKDTKSDIIFFQRSVPGHDNKMQFESSSYEGYFLAAEKERDLFKLILKKEDELGDRSIMFTVQNED
# B3: modified IL-18 polypeptide SEQ ID NO: 239 (E6K, V11I, C38A, M51G, K53A, T63A, C76A, C127A) (ligand)
# chain: YFGKLKSKLSIIRNLNDQVLFIDQGNRPLFEDMTDSDARDNAPRTIFIISGYADSQPRGMAVAISVKCEKISTLSAENKIISFKEMNPPDNIKDTKSDIIFFQRSVPGHDNKMQFESSSYEGYFLAAEKERDLFKLILKKEDELGDRSIMFTVQNED
# B4: modified IL-18 polypeptide SEQ ID NO: 237 (E6K, V11I, C38A, K53A, T63A, C76A, C127A, V153E) (ligand)
# chain: YFGKLKSKLSIIRNLNDQVLFIDQGNRPLFEDMTDSDARDNAPRTIFIISMYADSQPRGMAVAISVKCEKISTLSAENKIISFKEMNPPDNIKDTKSDIIFFQRSVPGHDNKMQFESSSYEGYFLAAEKERDLFKLILKKEDELGDRSIMFTEQNED
# B5: modified IL-18 polypeptide SEQ ID NO: 235 (E6K, K8E, V11I, C38A, K53A, T63A, C76A, Q103R, C127A) (ligand)
# chain: YFGKLKSELSIIRNLNDQVLFIDQGNRPLFEDMTDSDARDNAPRTIFIISMYADSQPRGMAVAISVKCEKISTLSAENKIISFKEMNPPDNIKDTKSDIIFFRRSVPGHDNKMQFESSSYEGYFLAAEKERDLFKLILKKEDELGDRSIMFTVQNED
# B6: modified IL-18 polypeptide SEQ ID NO: 238 (E6K, V11I, C38A, K53A, T63A, C76A, C127A, V153Y) (ligand)
# chain: YFGKLKSKLSIIRNLNDQVLFIDQGNRPLFEDMTDSDARDNAPRTIFIISMYADSQPRGMAVAISVKCEKISTLSAENKIISFKEMNPPDNIKDTKSDIIFFQRSVPGHDNKMQFESSSYEGYFLAAEKERDLFKLILKKEDELGDRSIMFTYQNED
# B7: modified IL-18 polypeptide SEQ ID NO: 225 (V11I, C38A, S55H, C76A, C127A) (ligand)
# chain: YFGKLESKLSIIRNLNDQVLFIDQGNRPLFEDMTDSDARDNAPRTIFIISMYKDHQPRGMAVTISVKCEKISTLSAENKIISFKEMNPPDNIKDTKSDIIFFQRSVPGHDNKMQFESSSYEGYFLAAEKERDLFKLILKKEDELGDRSIMFTVQNED
# B8: modified IL-18 polypeptide SEQ ID NO: 229 (V11I, C38A, C76A, S105K, C127A) (ligand)
# chain: YFGKLESKLSIIRNLNDQVLFIDQGNRPLFEDMTDSDARDNAPRTIFIISMYKDSQPRGMAVTISVKCEKISTLSAENKIISFKEMNPPDNIKDTKSDIIFFQRKVPGHDNKMQFESSSYEGYFLAAEKERDLFKLILKKEDELGDRSIMFTVQNED
# B9: modified IL-18 polypeptide SEQ ID NO: 233 (E6K, V11I, C38A, I49R, K53A, T63A, C76A, C127A) (ligand)
# chain: YFGKLKSKLSIIRNLNDQVLFIDQGNRPLFEDMTDSDARDNAPRTIFIRSMYADSQPRGMAVAISVKCEKISTLSAENKIISFKEMNPPDNIKDTKSDIIFFQRSVPGHDNKMQFESSSYEGYFLAAEKERDLFKLILKKEDELGDRSIMFTVQNED
# B10: modified IL-18 polypeptide SEQ ID NO: 240 (E6R, V11I, C38A, K53A, T63A, C76A, C127A) (ligand)
# chain: YFGKLRSKLSIIRNLNDQVLFIDQGNRPLFEDMTDSDARDNAPRTIFIISMYADSQPRGMAVAISVKCEKISTLSAENKIISFKEMNPPDNIKDTKSDIIFFQRSVPGHDNKMQFESSSYEGYFLAAEKERDLFKLILKKEDELGDRSIMFTVQNED
# B11: modified IL-18 polypeptide SEQ ID NO: 232 (E6K, V11I, C38A, I49M, K53A, T63A, C76A, C127A) (ligand)
# chain: YFGKLKSKLSIIRNLNDQVLFIDQGNRPLFEDMTDSDARDNAPRTIFIMSMYADSQPRGMAVAISVKCEKISTLSAENKIISFKEMNPPDNIKDTKSDIIFFQRSVPGHDNKMQFESSSYEGYFLAAEKERDLFKLILKKEDELGDRSIMFTVQNED
# B12: modified IL-18 polypeptide SEQ ID NO: 230 (K8L, E6K, V11I, C38A, K53A, T63A, C76A, C127A) (ligand)
# chain: YFGKLKSLLSIIRNLNDQVLFIDQGNRPLFEDMTDSDARDNAPRTIFIISMYADSQPRGMAVAISVKCEKISTLSAENKIISFKEMNPPDNIKDTKSDIIFFQRSVPGHDNKMQFESSSYEGYFLAAEKERDLFKLILKKEDELGDRSIMFTVQNED
# B13: modified IL-18 polypeptide SEQ ID NO: 228 (V11I, C38A, C76A, S105I, C127A) (ligand)
# chain: YFGKLESKLSIIRNLNDQVLFIDQGNRPLFEDMTDSDARDNAPRTIFIISMYKDSQPRGMAVTISVKCEKISTLSAENKIISFKEMNPPDNIKDTKSDIIFFQRIVPGHDNKMQFESSSYEGYFLAAEKERDLFKLILKKEDELGDRSIMFTVQNED
# B14: modified IL-18 polypeptide SEQ ID NO: 221 (V11I, C38A, K53A, C76A, D110A, C127A) (ligand)
# chain: YFGKLESKLSIIRNLNDQVLFIDQGNRPLFEDMTDSDARDNAPRTIFIISMYADSQPRGMAVTISVKCEKISTLSAENKIISFKEMNPPDNIKDTKSDIIFFQRSVPGHANKMQFESSSYEGYFLAAEKERDLFKLILKKEDELGDRSIMFTVQNED
# B15: modified IL-18 polypeptide SEQ ID NO: 223 (K8E, V11I, C38A, C76A, Q103R, C127A) (ligand)
# chain: YFGKLESELSIIRNLNDQVLFIDQGNRPLFEDMTDSDARDNAPRTIFIISMYKDSQPRGMAVTISVKCEKISTLSAENKIISFKEMNPPDNIKDTKSDIIFFRRSVPGHDNKMQFESSSYEGYFLAAEKERDLFKLILKKEDELGDRSIMFTVQNED
# B16: modified IL-18 polypeptide SEQ ID NO: 222 (K8R, V11I, C38A, C76A, Q103E, C127A) (ligand)
# chain: YFGKLESRLSIIRNLNDQVLFIDQGNRPLFEDMTDSDARDNAPRTIFIISMYKDSQPRGMAVTISVKCEKISTLSAENKIISFKEMNPPDNIKDTKSDIIFFERSVPGHDNKMQFESSSYEGYFLAAEKERDLFKLILKKEDELGDRSIMFTVQNED
# B17: modified IL-18 polypeptide SEQ ID NO: 227 (V11I, C38A, S55T, C76A, C127A) (ligand)
# chain: YFGKLESKLSIIRNLNDQVLFIDQGNRPLFEDMTDSDARDNAPRTIFIISMYKDTQPRGMAVTISVKCEKISTLSAENKIISFKEMNPPDNIKDTKSDIIFFQRSVPGHDNKMQFESSSYEGYFLAAEKERDLFKLILKKEDELGDRSIMFTVQNED
# B18: modified IL-18 polypeptide SEQ ID NO: 234 (E6K, V11I, C38A, K53A, T63A, C76A, Q103R, C127A) (ligand)
# chain: YFGKLKSKLSIIRNLNDQVLFIDQGNRPLFEDMTDSDARDNAPRTIFIISMYADSQPRGMAVAISVKCEKISTLSAENKIISFKEMNPPDNIKDTKSDIIFFRRSVPGHDNKMQFESSSYEGYFLAAEKERDLFKLILKKEDELGDRSIMFTVQNED
# B19: modified IL-18 polypeptide SEQ ID NO: 224 (V11I, C38A, C76A, Q103K, C127A) (ligand)
# chain: YFGKLESKLSIIRNLNDQVLFIDQGNRPLFEDMTDSDARDNAPRTIFIISMYKDSQPRGMAVTISVKCEKISTLSAENKIISFKEMNPPDNIKDTKSDIIFFKRSVPGHDNKMQFESSSYEGYFLAAEKERDLFKLILKKEDELGDRSIMFTVQNED
# B20: modified IL-18 polypeptide SEQ ID NO: 226 (V11I, C38A, S55R, C76A, C127A) (ligand)
# chain: YFGKLESKLSIIRNLNDQVLFIDQGNRPLFEDMTDSDARDNAPRTIFIISMYKDRQPRGMAVTISVKCEKISTLSAENKIISFKEMNPPDNIKDTKSDIIFFQRSVPGHDNKMQFESSSYEGYFLAAEKERDLFKLILKKEDELGDRSIMFTVQNED
# B21: modified IL-18 polypeptide SEQ ID NO: 242 (N-terminal G, E6K, V11I, C38A, K53A, T63A, C76A, C127A) (ligand)
# chain: GYFGKLKSKLSIIRNLNDQVLFIDQGNRPLFEDMTDSDARDNAPRTIFIISMYADSQPRGMAVAISVKCEKISTLSAENKIISFKEMNPPDNIKDTKSDIIFFQRSVPGHDNKMQFESSSYEGYFLAAEKERDLFKLILKKEDELGDRSIMFTVQNED
# B22: modified IL-18 polypeptide SEQ ID NO: 241 (N-terminal 4xG, E6K, V11I, C38A, K53A, T63A, C76A, C127A) (ligand)
# chain: GGGGYFGKLKSKLSIIRNLNDQVLFIDQGNRPLFEDMTDSDARDNAPRTIFIISMYADSQPRGMAVAISVKCEKISTLSAENKIISFKEMNPPDNIKDTKSDIIFFQRSVPGHDNKMQFESSSYEGYFLAAEKERDLFKLILKKEDELGDRSIMFTVQNED
# Target: T1, IL-18 receptor on HEK-Blue IL18R …
# Assay: cell-based or functional assay
row,Binder,"EC50, HEK-Blue IL18R reporter (SEAP) [nM]"
1,B1,19.5
2,B2,0.02
3,B3,0.1
4,B4,0.1
5,B5,0.4
6,B6,0.08
7,B7,3.14
8,B8,7.73
9,B9,0.04
10,B10,0.04
11,B11,0.07
12,B12,0.29
13,B13,5.37
14,B14,2.02
15,B15,2.3
16,B16,2.01
17,B17,4.73
18,B18,0.26
19,B19,1.5
20,B20,1.91
21,B21,1.68
22,B22,2.5
